Data published in patent US20260184748A1, “COMPOSITIONS COMPRISING OCTADECANEUROPEPTIDES (ODN) AND SYNTHETIC DERIVATIVES THEREOF AND METHODS OF USE FOR MODULATION OF FOOD INTAKE, OBESITY, BODY WEIGHT, NAUSEA, AND EMESIS” (The Trustees of the University of Pennsylvania, priority 2022, published 2026).
Entries after “also recorded” stand apart in the source; their conditions may differ.

What was measured:
C5L2 = C5L2 (Homo sapiens, UniProt Q9P296); experiment: Arrestin agonist mode; assay type: cell-based; details: read-out: RC50 (the source's name)
Sequence of C5L2 (Q9P296 whole entry): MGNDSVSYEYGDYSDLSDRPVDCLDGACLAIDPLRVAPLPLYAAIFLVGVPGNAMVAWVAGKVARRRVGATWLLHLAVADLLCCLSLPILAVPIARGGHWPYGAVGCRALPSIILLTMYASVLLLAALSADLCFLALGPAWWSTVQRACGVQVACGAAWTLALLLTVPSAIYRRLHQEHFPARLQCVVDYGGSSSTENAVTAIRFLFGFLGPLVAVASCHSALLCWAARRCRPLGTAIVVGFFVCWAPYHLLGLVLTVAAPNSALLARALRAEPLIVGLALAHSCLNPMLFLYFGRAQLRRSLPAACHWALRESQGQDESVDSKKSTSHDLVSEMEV

C5aR1 = target: T1, C5aR1 (Homo sapiens, UniProt P21730); experiment: Arrestin agonist mode; assay type: cell-based; details: read-out: RC50 (the source's name)
T1 sequence (P21730 1-350): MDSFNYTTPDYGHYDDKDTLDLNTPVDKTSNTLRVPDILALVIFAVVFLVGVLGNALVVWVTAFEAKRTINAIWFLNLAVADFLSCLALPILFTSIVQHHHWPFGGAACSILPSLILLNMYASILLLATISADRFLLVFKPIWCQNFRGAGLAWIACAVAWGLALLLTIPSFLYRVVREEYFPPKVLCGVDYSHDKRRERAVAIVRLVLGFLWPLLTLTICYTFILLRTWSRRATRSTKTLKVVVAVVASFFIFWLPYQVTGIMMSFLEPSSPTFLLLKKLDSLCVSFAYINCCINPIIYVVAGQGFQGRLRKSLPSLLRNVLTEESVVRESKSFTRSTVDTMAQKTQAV

CCR8 = CCR8 (Homo sapiens, UniProt P51685); experiment: Arrestin agonist mode; assay type: cell-based; details: read-out: RC50 (the source's name)
PROKR1 = PROKR1 (Homo sapiens, UniProt Q8TCW9); experiment: Arrestin agonist mode; assay type: cell-based; details: read-out: RC50 (the source's name)
Sequence of PROKR1 (Q8TCW9 whole entry): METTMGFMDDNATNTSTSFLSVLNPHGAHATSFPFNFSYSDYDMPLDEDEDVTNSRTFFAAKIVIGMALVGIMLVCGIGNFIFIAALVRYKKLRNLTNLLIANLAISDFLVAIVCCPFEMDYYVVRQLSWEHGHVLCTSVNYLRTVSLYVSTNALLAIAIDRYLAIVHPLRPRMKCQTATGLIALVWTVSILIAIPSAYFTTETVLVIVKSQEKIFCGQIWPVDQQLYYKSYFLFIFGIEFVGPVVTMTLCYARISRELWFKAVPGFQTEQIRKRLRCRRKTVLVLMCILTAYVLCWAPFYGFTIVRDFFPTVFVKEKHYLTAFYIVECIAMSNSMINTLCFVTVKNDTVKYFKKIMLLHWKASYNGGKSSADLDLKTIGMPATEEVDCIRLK

PROKR2 = PROKR2 (Homo sapiens, UniProt Q8NFJ6); experiment: Arrestin agonist mode; assay type: cell-based; details: read-out: RC50 (the source's name)
Sequence of PROKR2 (Q8NFJ6 whole entry): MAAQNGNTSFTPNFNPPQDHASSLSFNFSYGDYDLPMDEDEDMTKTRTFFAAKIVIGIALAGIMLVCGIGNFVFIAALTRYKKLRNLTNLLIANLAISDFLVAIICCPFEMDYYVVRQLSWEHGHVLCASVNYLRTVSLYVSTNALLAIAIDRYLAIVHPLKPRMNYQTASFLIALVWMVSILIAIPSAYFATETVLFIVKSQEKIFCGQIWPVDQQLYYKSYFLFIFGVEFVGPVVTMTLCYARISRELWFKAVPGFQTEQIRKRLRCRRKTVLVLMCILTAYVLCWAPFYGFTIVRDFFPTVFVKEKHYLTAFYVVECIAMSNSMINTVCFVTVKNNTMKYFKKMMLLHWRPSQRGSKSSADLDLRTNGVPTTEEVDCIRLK

[1] = 24 h body weight change in rats; assay type: in vivo, rat; details: 4th ventricle injection
[2] = Food intake and meal pattern after central injection in rats; assay type: in vivo, rat; details: for food intake: 4th ventricle injection
Description: Rats were exposed to kaolin for at least 5 days prior to measuring kaolin consumption in pica testing. Except for studies conducted in the BioDaq, for all feeding studies rats were housed in hanging wire cages to allow for accurate measurement of food spillage.
For cannula implantation, rats were anesthetized by intraperitoneal injection of a mixture containing ketamine (90 mg/kg, Butler Animal Health Supply), xylazine (2.7 mg/kg, Anased), and acepromazine (0.64 mg/kg, Butler Animal Health Supply) (KAX) and then placed into a stereotaxic apparatus. Each rat was stereotaxically implanted with a guide cannula (26-ga, Plastics One) aimed at the fourth ventricle (guide cannula coordinates: on midline, 2.5 mm anterior to occipital suture, 5.2 mm ventral to skull; internal cannula aimed 7.2 mm ventral to skull) or the lateral ventricle (guide cannula coordinates: 1.5 mm lateral to midline, 0.9 mm posterior to bregma, 1.8 mm ventral to skull; internal cannula aimed 3.8 mm ventral to skull). For all cannulas, dummies (no projection beyond guide) were inserted in the guide cannula and left until infusions were performed. For all surgeries, rats received post-operative temperature support and analgesia was provided immediately following surgery and for two post-operative days (2 mg/kg meloxicam).

CCR9 = target: T2, CCR9 (Homo sapiens, UniProt P51686); experiment: Arrestin agonist mode; assay type: cell-based; details: read-out: RC50 (the source's name)
T2 sequence (P51686 1-369): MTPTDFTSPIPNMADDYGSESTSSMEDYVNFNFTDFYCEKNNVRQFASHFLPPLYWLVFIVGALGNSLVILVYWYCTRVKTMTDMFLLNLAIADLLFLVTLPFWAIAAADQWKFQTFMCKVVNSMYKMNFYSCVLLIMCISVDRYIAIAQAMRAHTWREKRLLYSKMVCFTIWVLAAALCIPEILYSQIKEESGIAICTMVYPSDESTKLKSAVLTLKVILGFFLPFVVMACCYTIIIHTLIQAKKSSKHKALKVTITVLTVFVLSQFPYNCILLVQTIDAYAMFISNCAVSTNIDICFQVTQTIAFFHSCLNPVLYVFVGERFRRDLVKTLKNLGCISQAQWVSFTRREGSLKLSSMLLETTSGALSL

CXCR6 = CXCR6 (Homo sapiens, UniProt O00574); experiment: Arrestin agonist mode; assay type: cell-based; details: read-out: RC50 (the source's name)
Sequence of CXCR6 (O00574 whole entry): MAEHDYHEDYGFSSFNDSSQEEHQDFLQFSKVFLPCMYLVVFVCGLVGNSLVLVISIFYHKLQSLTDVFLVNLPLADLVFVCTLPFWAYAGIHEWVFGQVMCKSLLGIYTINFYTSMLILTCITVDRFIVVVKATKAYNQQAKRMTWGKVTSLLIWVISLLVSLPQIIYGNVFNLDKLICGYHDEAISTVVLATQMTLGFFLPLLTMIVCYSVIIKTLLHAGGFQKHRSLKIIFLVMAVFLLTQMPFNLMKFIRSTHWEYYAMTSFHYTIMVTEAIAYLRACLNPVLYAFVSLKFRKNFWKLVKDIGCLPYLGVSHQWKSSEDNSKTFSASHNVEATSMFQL

CCR10 = target: T3, CCR10 (Homo sapiens, UniProt P46092); experiment: Arrestin agonist mode; assay type: cell-based; details: read-out: RC50 (the source's name)
T3 sequence (P46092 1-362): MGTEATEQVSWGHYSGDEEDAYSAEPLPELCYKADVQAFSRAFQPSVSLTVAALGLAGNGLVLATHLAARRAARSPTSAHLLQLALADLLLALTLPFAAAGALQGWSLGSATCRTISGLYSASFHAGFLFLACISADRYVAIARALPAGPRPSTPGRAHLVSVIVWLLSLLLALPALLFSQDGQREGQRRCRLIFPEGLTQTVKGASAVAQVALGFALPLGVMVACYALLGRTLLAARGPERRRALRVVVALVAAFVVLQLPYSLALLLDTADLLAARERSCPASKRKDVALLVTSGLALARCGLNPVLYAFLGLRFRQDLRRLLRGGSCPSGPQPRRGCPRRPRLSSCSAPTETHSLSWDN

[3] = Insulin tolerance test after 4th ventricle ODN; assay type: in vivo, rat; details: 4th ventricle pretreatment then ODN 200 μg/2 μL; chow rats
RXFP3 = target: T4, RXFP3 (Homo sapiens, UniProt Q9NSD7); experiment: Arrestin agonist mode; assay type: cell-based; details: read-out: RC50 (the source's name)
T4 sequence (Q9NSD7 1-469): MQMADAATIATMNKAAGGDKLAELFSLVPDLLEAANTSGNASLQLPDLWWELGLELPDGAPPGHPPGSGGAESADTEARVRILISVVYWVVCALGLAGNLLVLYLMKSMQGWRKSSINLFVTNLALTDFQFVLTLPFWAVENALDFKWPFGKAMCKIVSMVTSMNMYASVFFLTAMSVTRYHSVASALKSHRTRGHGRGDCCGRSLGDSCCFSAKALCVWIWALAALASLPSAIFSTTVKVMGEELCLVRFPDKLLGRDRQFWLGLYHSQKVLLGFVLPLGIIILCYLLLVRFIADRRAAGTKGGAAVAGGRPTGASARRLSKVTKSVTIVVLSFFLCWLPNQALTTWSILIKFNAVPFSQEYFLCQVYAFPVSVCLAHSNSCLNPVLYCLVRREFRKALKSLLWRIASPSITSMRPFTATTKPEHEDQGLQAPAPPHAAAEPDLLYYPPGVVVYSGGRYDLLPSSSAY

relaxin-3 receptor = target: T5, relaxin-3 receptor (Rattus norvegicus, UniProt Q5Y987); experiment: Central ODN antagonizes relaxin-3 induced hyperphagia; assay type: in vivo; details: injection into the nucleus incertus; rats
T5 construct: expressed a high level of the relaxin-3 receptor; from tissue; host or cells: rat brain, nucleus incertus (living animal)
T5 sequence (Q5Y987 1-469): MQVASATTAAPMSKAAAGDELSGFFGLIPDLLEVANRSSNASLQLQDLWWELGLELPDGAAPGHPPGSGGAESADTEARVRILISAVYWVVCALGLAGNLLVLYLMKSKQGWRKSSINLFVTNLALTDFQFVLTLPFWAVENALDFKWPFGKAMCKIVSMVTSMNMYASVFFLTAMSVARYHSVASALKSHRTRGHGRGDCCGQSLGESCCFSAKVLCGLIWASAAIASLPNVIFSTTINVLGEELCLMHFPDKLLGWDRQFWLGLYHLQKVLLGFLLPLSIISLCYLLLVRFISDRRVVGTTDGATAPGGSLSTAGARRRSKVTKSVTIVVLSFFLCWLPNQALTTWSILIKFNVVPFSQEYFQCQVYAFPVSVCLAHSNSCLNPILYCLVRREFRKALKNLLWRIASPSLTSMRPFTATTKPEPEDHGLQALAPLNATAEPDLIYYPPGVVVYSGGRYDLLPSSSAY
Description: Rats were stereotaxically implanted with a bilateral guide cannula (26-ga, Plastics One) aimed at the nucleus incertus (guide cannula coordinates: ±0.5 lateral to midline, 9.5 mm […] to bregma, 5.8 mm ventral to skull; internal cannula aimed 7.8 mm ventral to skull). Recombinant human relaxin-3 was purchased (130-10, PreproTech Inc.) and ODN was synthesized by the Doyle laboratory. […] 24 h food intake was recorded in a Biodaq system (Research Diets, Inc).

CCR4 = target: T6, CCR4 (Homo sapiens, UniProt P51679); experiment: Arrestin agonist mode; assay type: cell-based; details: read-out: RC50 (the source's name)
T6 sequence (P51679 1-360): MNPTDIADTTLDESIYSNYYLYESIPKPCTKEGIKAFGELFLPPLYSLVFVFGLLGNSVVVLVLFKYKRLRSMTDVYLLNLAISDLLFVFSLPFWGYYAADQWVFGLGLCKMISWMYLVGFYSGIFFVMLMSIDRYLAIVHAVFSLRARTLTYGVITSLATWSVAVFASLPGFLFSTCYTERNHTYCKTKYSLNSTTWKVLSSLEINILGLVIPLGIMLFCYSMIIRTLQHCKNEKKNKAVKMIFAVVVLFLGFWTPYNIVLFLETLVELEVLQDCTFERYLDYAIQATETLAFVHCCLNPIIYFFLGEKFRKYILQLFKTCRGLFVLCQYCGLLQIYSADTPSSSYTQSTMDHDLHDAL

[4] = 4th ventricle, chow-maintained rats

B1: Complement C5a: control agonist (protein)
chain: TLQKKIEEIAAKYKHSVVKKCCYDGACVNNDETCEQRAARISLGPRCIKAFTECCVVASQLRANISHKDMQLGR
With B1 the EC50 (C5L2) was 1.57 nM and the EC50 (C5aR1) was 1.38 nM.

B2: CCL1: control agonist (protein)
chain: KSMQVPFSRCCFSFAEQEIPLRAILCYRNTSSICSNEGLIFKLKRGKEACALDTVGWVQRHRKMLRHCPSKRK
Work on B2 yielded an EC50 (CCR8) of 45.8 nM.

B3: EG VEGF: control agonist (protein)
chain: AVITGACERDVQCGAGTCCAISLWLRGLRMCTPLGREGEECHPGSHKVPFFRKRKHHTCPCLPNLLCSRFPDGRYRCSMDLKNINF
B3 gave an EC50 (PROKR1) of 17.7 nM and an EC50 (PROKR2) of 10.6 nM.

B4: recombinant DBI protein: Rat recombinant diazepam binding inhibitor (DBI) protein (LS-G136996, Lifespan Biosciences) (protein, UniProt P11030 2-87, looked up)
Acyl-CoA-binding protein: SQADFDKAAEEVKRLKTQPTDEEMLFIYSHFKQATVGDVNTDRPGLLDLKGKAKWDSWNKLKGTSKENAMKTYVEKVEELKKKYGI
With B4 the “24 h body weight change” value ([1]; HFD-maintained rats) was “not significantly decreased”, the “24 h body weight change” value ([1]; chow-maintained rats) was “not significantly decreased” and the food intake ([2]; HFD-maintained rats) was “not high-fat diet (HFD) rats”. For the same molecule, the food intake ([2]; HFD-maintained rats, listed as DBI) was “did not decrease food intake in HFD-maintained rats”, the food intake ([2]; chow-maintained rats) was “suppresses food intake in chow fed rats; also recorded: hypophagic in chow” and the food intake ([2]; chow-maintained rats, listed as DBI) was “significantly reduced food intake at 4, 5, and 7-24 hours post injection; also recorded: decreased food intake at 4, 5, and 7-24 hours post injection”. The number of bouts [2, 4] was “decreased the number of bouts at 8 and 21 hours post injection”, the number of meals [2, 4] was “decreased the number of meals at 8-10 and 12-21 hours post injection” and the “time spent in bouts” value [2, 4] was “did not alter the time spent in bouts”. For the same molecule, the “time spent in meals” value [2, 4] was “decreased the time spent in meals 8-24 hours post injection”.

B5: CCL25: control agonist (protein)
chain: QGVFEDCCLAYHYPIGWAVLRRAWTYRIQEVSGSCNLPAAIFYLPKRHRKVCGNPKSREVQRAMKLLDARNKVFAKLHHNTQTFQAGPHAVKKLSSGNSKLSSSKFSNPISSSKRNVSLLISANSGL
B5 gave an EC50 (CCR9) of 173 nM.

B6: CXCL16: control agonist (protein)
chain: NEGSVTGSCYCGKRISSDSPPSVQFMNRLRKHLRAYHRCLYYTRFQLLSWSVCGGNKDPWVQELMSCLDLKECGHAYSGIVAHQKHLLP
With B6 the EC50 (CXCR6) was 6.81 nM.

B7: CCL27: control agonist (protein)
chain: FLLPPSTACCTQLYRKPLSDKLLRKVIQVELQEADGDCHLQAFVLHLAQRSICIHPQNPSLSQWFEHQERKLHGTLPKLNFGMLRKMG
Work on B7 yielded an EC50 (CCR10) of 26.3 nM.

B8: Relaxin-3: Recombinant human relaxin-3 (130-10, PreproTech); control agonist of RXFP3 (protein)
chain 1: RAAPYGVRLCGREFIRAVIFTCGGSRWRRSDILAHEAMGDTFPDADADEDSLAGELDEAMGSSEWLALTKSPQAFYRGRPSWQGTPGVLRGSRDVLAGLSSSCCKWGCSKSEISSLC
chain 2: RAAPYGVRLCGREFIRAVIFTCGGSRWRRSDILAHEAMGDTFPDADADEDSLAGELDEAMGSSEWLALTKSPQAFYRGRPSWQGTPGVLRGSRDVLAGLSSSCCKWGCSKSEISSLC
With B8 the “effect of pretreatment on ODN improvement in insulin tolerance” value [3] was “block hindbrain ODN improvements in insulin tolerance”, the EC50 (RXFP3) was 11.9 nM and the “24-hour food intake and body weight” value (relaxin-3 receptor) was “increased 24-hour food intake and body weight”.

B9: CCL22: control agonist (protein)
chain: GPYGANMEDSVCCRDYVRYRLPLRVVKHFYWTSDSCPRPGVVLLTFRDKEICADPRVPWVKMILNKLSQ
For B9, the EC50 (CCR4) was 3.44 nM.
